Laboratory results published in the DeepSol protein solubility set.

Assay: soluble on expression in E. coli; label from the status in PepcDB or PDB records

| Sequence | soluble on expression in E. coli |
| --- | --- |
| MGSDKIHHHHHHMATAIRGLKLQTEDYFLTDKNAVMVAERHPQPVFPLHHHDFDELVIVWRGNGLHLWNDVPYRITRGDMFYVSAHDRHSYESVHELELDNILYIRNRLTLSADWQTLLPSGELPQSQRHWCLGSEGMDTIREKVDALTQECMKSDALSLQLSEALLLQIALLAARYRHSPDSPQLADAHQLDMLMNALRASIAAPFRFEAFCEQHHFSARSLRSRFKEQTGMSVPHYLRQLRLCKAMELLRYDLQTIGDVAALCGFEDSNYFSVVFHQAFGVSPSAYRQRFLNVE | not soluble |
| MPGKNEYAVESLLTVGNGFLGLRGTTPEMTISDDHYPATYIAGLYNTAASEVAGQVVENEDFVNAPDNQHIALKIGDATDWLTISPDTLQQLHRQLNLKTGLFVAEMILKDADNQQIKLTTKKIANMAQPNDYHLQYTFEPLNFSAPITLKTVTDGSVYNYNVARYRNLTAKHFQVTALSAQENKTVIEVCTNQSNLSVRETSLITGDFFEKEAITIQEEAEKIAQVVTVMAHQGTRYTLEKQVFVQASHAEQSWQVPFTPKDSFAAAAQESARAWQTLWQQANITVTGDLMSQKLLRIHSYHLLASASPFSNQAQALDVSITARGLHGEAYRGHIFWDEIFILPFYIQHYPDTAKQLLLYRYHRLEKAKENAAASQYRGAMYPWQSGRDGRETTQKLHLNPLNGHWGEDHSILQRHVSLAIAYNAWLYWHSTQDHEFMKQYGGEMLLEIAQFWNSAATLDDATGRFFIDKVMGPDEFHEGYPDQAESGLKNNAYTNLMVVWLFEELTNILALFSEEEQAQLFAKTQTTSADLARMQQIQNSLEIEVNSDGIIAQYEGYFGLKEIDWTAMKEKYGNIYRMDRILKAEGESPDDYKVAKQADTLMLFYNLDKTRVDQILEDLGYQLPADYLEKNLLYYLKRTSHGSTLSRIVHAQLAEMAQFHELSWQLYQEALYSDYRDIQGGTTAEGIHTGVMAATIHVTLATYAGVDTRQNELSICPNLPEHWQALAFQFIHQGVTYQFSLTQTSVTITADRDTQLLVQGALIPLTAERPKEVHYQ | not soluble |
| MGILDKVKNLLSQNADKVETVINKAGEFVDEQTQGNYSDAIHKLHDAASNVVGMSDQQS | soluble |
| MSLAPSPSSSTAPAALQQLGWQARLRWVHGICQGLPKVAQQLDEFLANQTGVVSTAREMQEWREAWVGFQQHKDAWVQACSQALQQAARKPPSQAGESSASGSAPLNFELLSDDVVENKILASRMALAMGETLQPGFEAMRLRMQALEGHELPSRDMFRAETICLHLVEQWLSCGMERKHLLRAVEPLQNALAPLMESEYGILHKLLDAKGVSKAQDAPLRVKRTEGGPPTGAMPLGGASGFGHAAEPGWSSSAMQQFMSAGMAAGIGTEPGIALPPGASAGLGMLARARHRALDAMNQLRQVLSQPAVGIPGLMPGAPLVPMPPASAALAQALQEQQQLMVAELRAQYPAATGSAMAMPAMDYSPAAIDQLVNQVRERSADWKQKAQTTGEKATIEVVALMFQSILSEDRLPPSIRVWFARLQVPVLRVALAEPQFFSDLNHPARKLIDRMGSCVMGFDASSINGNALETEIRRVVQVIEQYPETGQKVFALVLREFEAFLTKHFAQNRSTAKITSVAQQVEQKETLAIQYTIELRNMLTDMPVREEVRDFLFKSWADVLAMATVRYGAKDARAMRFKQAASELVWSASAKPSRQERARVIQGLPTLLQTLREGLELVSVTGDAQSTAIKVLTDTLAQAFMSKTAAIPAERIEAMAKRLSELEKYISEDGKLDDMPLSSESIELMLGVDAGDLNVIPNTDSPVEPAMLEWARSLESGRWFTLDHNGSRVQVQYVWHSRRRHLHLFASLDGHCYLLQAQRMATYLQAGLLAVHDAEALTVRATRDALQKIQANPEREGHHHHHH | soluble |
| MGSDKIHHHHHHMSSDSRDLARSATAWPFQEARALLDERLKGKAPDKGYVLFETGYGPSGLPHIGTFGEVARTTMVRRAFSLLAPEIPTRLFAFSDDMDGLRKVPDNIPNKEMVAKHLGKPLTRIPDPFGTHESFGHHNNARLCSFLDTFGFEYEFQSATDWYKSGRFDAALLGVLKHYDEVINVVLPTLGDERRATYSPFLPVCPDTGIVLQVPVVERNVEAGTIVYKREDGKLIETPVTGGACKLQWKADWGMRWVALGVDYEMSGKDLIPSVQLSTRIATILGGRAPLNLTYELFLDDQGQKISKSKGNGLAVEDWLKYAPQESLALFMYQKPKTAKRLYFDVIPRAVDEYLAYLGKFPSEEPGKKLDNPVWHIHGGKPPAEDAHLSFNILMNLVSVCHSDDPAVIWGFIKRYAPGAAPETAPILNGLVGYAIAYFKDFVKPNMKYRKATPDEVEAFTALKDGLLALPADASVDDIQNLVYAIGKRPCFGELKAWFKACYEVLLGNDQGPRMGSFIKLFGIAETIALLDKAIAGEDM | not soluble |
| MTRSENFILDFTHIYIDENIEQTENIVRIDCSDILGTDLYCTKEGEAEIQKRIENFSINGVHFIDSGNYHYITKIMTDKINKKFSLVLYDHHTDMQKPMVEGMTSCGDWAAQVIEQNENLEQLILVGASEADIQQINVKNQSKLITFSAEELRNNSGREKLDLIETDVPFYISIDKDILDKHYIETNWSQGHMSLGMLEHLLKFFLKDKKIIGVDICGECQIGLPFPEYIEAEEKNAETNIELYEYIGRYMGK | not soluble |
| MTPPVSAFKKTPKKEEHPLVAIVILDAFDQRFAPTHESYPCFGTIPICNVPAINFALSWLMRTEVKNVMLVVSGLNADHATSVQREWRLAFDEFTVVVCDGASSVGDCMREIHNRELITGDFMLISNPTAVVSSTLSAQISEFRKRRRENPDNVMTLLYSNRENPEHLVLGINSETSKLMLFPAANSLNQLKASKKDFYDEVDIRRDLTPTGIAFCSRLIATQFSDNFDFVGIDDVVREILSKDDILGMSVHVEVLSPKERAFCAYDYESLILLNILMLERWFYPLVPENSDPSRYFSANPRNLYLEENGDEISIKANTWILNNNCSTVCLGVKTDIAYDAFIRNSCIGAHTEISSKTRITSSMIGKNCKIGENCVIEYAFIGDDVVIPNGAHIPKESIIGNGVMYPKELPNIQNTAIFKNAINEETFEKLSSQPIGNVHVSKFRNGGPFWRRSVNGKTNFALEEDDSESEYSESEEEDDGVGNSTKMFHDEVLESMQKILESENSLMRNLILEINSSKLACNVTMDEVARNVFAAFMKLKHNQDFNKMKELIVKWQPLFLNYYKTSAESLKVKSADQKRFELDLKRRCQIQLLLAIEDKFDRDESFGVKAQALVHYLYQEADILDEDSIIEWAGSIAEESKLKGLMKKIVDWLQEDDDEEESEDE | not soluble |
| SLNERVMMINANGVPIALYNRGHLGSGHFGAVIKASLDDGTLYAAKVPYSQIVPNADATSAELEAEISSARAELVKTIRQELDVRDKLVAKGLTLTETAEQYGLPLCQMTLTLPENKATVVRRGSRLVVVSKEVMLLPLIDGSPSNSLVQSQPPFLFQRAVAREAIIALAKLHELGFAHGDVKLNNMMIDVHGFGHMLDMGSVRPVDSCVSEEDKYYLRLWAPELAKSQHTSQQTCLKRGALDVWALGLAIFEFVCFNRLPYSLSNLPSSLWSRVEHLSRLRLSDFSAKDCNESDPAVMGIVAQFLNPNPEERPELPKFVSSYTFFRQAPGVTSHLTRIPTTELSSHR | not soluble |
| MGSDKIHHHHHHMNAERQPSCCKVRLLLCDKSYPSHQSPIYTPTPPPWPLLALPGGVIMRTYLSSVAAIMSRSPDPAPRSSAPGRRASSSTRPPLARIGEVAYLKVVAVNTTGAFLDWGQPKDVLLPFAEQRFRPEVGKRVLVMLYEDAQGRPVASMRLDRFLADEATDLKAGDQVALVVAERTDLGFKAVVDHRYWGLLYADDIVHPPRRGQRLTGYIKRVREDGRLDLAMLPPGEAGLDVVGDKVLALLRCHGGFVALGDKTPAAEIKARVGVSKSAFKQAVGRLYKKRLITIEAEGIRLTREAIDDASSD | not soluble |
| MAVPVQFRKPPMGGIGKKVAYYPGCSLEGAARAYDVSTRIVAKELGLELDYLEDYNCCGAMETKNVSFWGTMLLNARNMSLARRQGHNVIVAPCNGCSFSLQRVEYFLETDKNTLDRINQLLQEAGEKPLDNIPHTYHILEWFYHEAGPEKVKEKTKKPLRGLKVASYYGCLYTRPHFYARTYSHLAPEDEEQARPRKRETADDDEHPYYMEALLEAAGATSVEIEPMHTQCCGGPHSLSDEEVSEKFVMMILQTAKRNGADIIATECPLCHASLEMYRHRLMLKGVPDVDVPAAYFTQLLGLAFGYSVNDVKLKDNLSDPIPVLKRLGLA | not soluble |
| MEVCSTVTTKKLSSLAKLILFTIQKVSDASRHKLLTTLDPHLLAKRGKILRKSLNEAVSTSHSRITCRPSDHQDVRSSFISPVPLQLEYEFSCSSTPPRRSYATTVSKGRRSNGSHNRPLINKRQRQAYIRYNTLPKVRDSIWDRHVAAAVFPDVASSTGTMESCHVDRAAEEFIQSFYRQLRLQKWMMAQEV | not soluble |
| MSLAFNVAFRLDAGAEIGLGHLMRCLAIADRLRAAGAECHFLCHDLPAHLLPLLHAHHHHSLTTQDDAGPLPSLQPDWLVFDHYQIDHVVEQELAVHCDQLLVIDDLADRPHYCQLLLDQGPLRTAADYQPLIPADCRLLLGTDYALLRPAYRQLARQQTSQWQGGLICFGGADPAGACLTTLNSLACLPWPRTIQWTLVAGGANPFWPELEQRVAELPELKITLLRQSDQMAQLMNQHDFTIGAAGGMTWERACLGLPTLAVPIVDNQEGHHHHHH | not soluble |
| MKRLLLSAAILSSMALFNVNAQELKTSADMKGSFKKNVVLEVFTAEWCGYCPGGKERIAKAIEMLDDEYKERVFQTFVHYNDGISKKWPRVGQLFIALDQTLGIPGFPTFSVCRMEKKGENLSIGAPIAIKNKIMKGFGDGTAPAEVNLKLTKGATPEDVCTATFTGKVDADLIGKPLMLTAYVLKNNMKPINPQNGAGDGYLHQHTVLMILSTDVKGDALNIAADGSFTIKKEFKLDGFEIKDTDVLAFVHHPMSNAENHSIINAGQESLDKAEPTATEQIVATPSVKAYVQNGKIVVEEEYSKMEVFNATGQLVKNESLVPGVYVVRITANGVMYFLKVLVP | not soluble |
| MELSALTAVSPVDGRYGSKTIALREIFSEYGLLKYRTIVEIRWLQKLAATAEIAEVPAFSAEANQFLDDLAANFSEADALRIKEIERTTNHDVKAVEYFLKEKVADVPELHAVNEFFHFACTSEDINNTSHALMLKEARETVILPEIRNLIDAIKALAVEYRDIPLLSRTHGQPASPSTMGKEMANVAYRMERQYKQIENVEILAKINGAVGNYNAHLSAYPELDWHKFSEEFITESLGVTWNPYTTQIEPHDYIAELFDAVARFNTILIDFDRDVWGYIALGHFKQKTIAGEIGSSTMPHKVNPIDFENSEGNLGLANAVFGHLAQKLPISRWQRDLTDSTVLRNLGVGVGYAIIAYTSTLKGISKLEVNRDALLAELDKNWEVLAEPVQTVMRRYGIEKPYEKLKELTRGKRVDGEAMRNFIDGLELPEHEKARLKEMTPANYIGQAIELTDKL | not soluble |
| MNKTWWKEAVAYQIYPRSFMDSNGDGIGDLQGIIAKLDYLKDLGIDVIWICPMYKSPNDDNGYDISDYQDIMDEFGTMEDFDALLDEVHKRDMKLIIDLVINHTSDEHPWFIESRSSKDNPKRDWYIWHDGKDGAEPNNWESIFNGSAWEYDEVTGQYYLHLFSRKQPDLNWENKEVREVLYDTVNWWLDKGIDGFRVDAISHIKKEDGFKDMPNPKGLKYVPSFDKHMNVDGIQPLLEELKENTFSKYDIMTVGEANGVKIEDAELWVGEEQGKFNMVFQFEHLSLWDAEKKKDLDVVGLKKVLTKWQKGLENKGWNALYIENHDKPRIVSTWGDDKQYWRESATALGAMYFFMHGTPFIYQGQEIGMTNVQFPNIEDYDDVAIKNLYREKIAEGVSHQDMMEIIWASCRDNSRTPMHWDDEINAGFTTGTPWFGMNQNYKEINVAKQKNEENSIFNFYKKMIALKKEHDVLNYGTYDLLLEDDPQIYAYTRTLNDEKIVVISNISKEEAVYNEDLFALERKRLLLNNYEVAEHEQLTTITLKPYETRVYRIS | not soluble |
